What was measured:
[1] = biological target: N58Q mutant PD-1 expressed on 293T cells (PD-1-Flag) (human) (UniProt Q15116); assay: flow cytometry on 293T cells expressing the PD-1 form, labeled secondary antibody; control antibody
[2] = biological target: N116Q mutant PD-1 expressed on 293T cells (PD-1-Flag) (human) (UniProt Q15116); assay: as above
[3] = biological target: 4NQ mutant (unglycosylated) PD-1 expressed on 293T cells (PD-1-Flag) (human) (UniProt Q15116); assay: as above
[4] = biological target: N74Q mutant PD-1 expressed on 293T cells (PD-1-Flag) (human) (UniProt Q15116); assay: as above
Chain of N74Q mutant PD-1 expressed on 293T cells (PD-1-Flag) (human) (Q15116 25-288 N74Q): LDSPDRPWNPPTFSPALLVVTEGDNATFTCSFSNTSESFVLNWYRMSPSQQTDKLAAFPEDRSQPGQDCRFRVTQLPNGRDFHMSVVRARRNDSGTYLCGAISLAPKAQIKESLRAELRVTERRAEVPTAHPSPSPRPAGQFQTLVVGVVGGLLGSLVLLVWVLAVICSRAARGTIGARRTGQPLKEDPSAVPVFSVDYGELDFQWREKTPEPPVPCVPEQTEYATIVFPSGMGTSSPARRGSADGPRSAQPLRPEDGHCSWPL

[5] = biological target: wild type (glycosylated) PD-1 expressed on 293T cells (PD-1-Flag) (human) (UniProt Q15116); assay: as above
Chain of wild type (glycosylated) PD-1 expressed on 293T cells (PD-1-Flag) (human) (Q15116 25-288): as the sequence (Q15116 25-288 N74Q) above, with Q50N counted along it

[6] = biological target: N49Q mutant PD-1 expressed on 293T cells (PD-1-Flag) (human) (UniProt Q15116); assay: as above
Chain of N49Q mutant PD-1 expressed on 293T cells (PD-1-Flag) (human) (Q15116 25-288 N49Q): as the sequence (Q15116 25-288 N74Q) above, with N25Q, Q50N counted along it

[7] = biological target: N58Q mutant PD-1 expressed on 293T cells (PD-1-Flag) (human) (UniProt Q15116); assay: flow cytometry on 293T cells expressing the PD-1 variant, anti-mouse IgG-PE secondary, DAPI-negative population gated; percent of cells right of the dashed gate; 293T blank cells give 1.69
[8] = biological target: N116Q mutant PD-1 expressed on 293T cells (PD-1-Flag) (human) (UniProt Q15116); assay: as above
[9] = biological target: 4NQ mutant (unglycosylated) PD-1 expressed on 293T cells (PD-1-Flag) (human) (UniProt Q15116); assay: as above
[10] = biological target: N74Q mutant PD-1 expressed on 293T cells (PD-1-Flag) (human) (UniProt Q15116); assay: as above
[11] = biological target: wild type (glycosylated) PD-1 expressed on 293T cells (PD-1-Flag) (human) (UniProt Q15116); assay: as above
[12] = biological target: N49Q mutant PD-1 expressed on 293T cells (PD-1-Flag) (human) (UniProt Q15116); assay: as above

Chain of N58Q mutant PD-1 expressed on 293T cells (PD-1-Flag) (human) (Q15116 25-288 N58Q): as the sequence (Q15116 25-288 N74Q) above, with N34Q, Q50N counted along it
Chain of 4NQ mutant (unglycosylated) PD-1 expressed on 293T cells (PD-1-Flag) (human) (Q15116 other isoform, or with tags, fused parts or gaps mutant): as the sequence (Q15116 25-288 N74Q) above, with N25Q, N34Q, N92Q counted along it
Chain of N116Q mutant PD-1 expressed on 293T cells (PD-1-Flag) (human) (Q15116 25-288 N116Q): as the sequence (Q15116 25-288 N74Q) above, with Q50N, N92Q counted along it

MFI [1]: 106 MFI
MFI [2]: 28 MFI
MFI [3]: 26 MFI
MFI [4]: 26 MFI
MFI [5]: 52 MFI
MFI [6]: 31 MFI
Unit (%) (cells in the positive gate) [7]: 17.6%
Unit (%) (cells in the positive gate) [8]: 2.37%
Unit (%) (cells in the positive gate) [9]: 1.53%
Unit (%) (cells in the positive gate) [10]: 3.25%
Unit (%) (cells in the positive gate) [11]: 10.7%
Unit (%) (cells in the positive gate) [12]: 2.73%
Substance: control mouse IgG (antibody)

From patent US20210139588A1
